Key:
[1] = target: BMR–HFBI (diflavin reductase domain of P450 BM3 fused at its C-terminus to hydrophobin HFBI) (Bacillus megaterium | Trichoderma reesei) (UniProt P14779)
[2] = target: BMR–HFBI (diflavin reductase domain of P450 BM3 fused at its C-terminus to hydrophobin HFBI) (Bacillus megaterium | Trichoderma reesei) (UniProt P14779); remark: listed apart in the source
[3] = target: BMR–HFBI (diflavin reductase domain of P450 BM3 fused at its C-terminus to hydrophobin HFBI) (Bacillus megaterium | Trichoderma reesei) (UniProt P14779); remark: listed apart in the source

**Q.** Which conversion of myristic acid with cofactor regeneration, fivefold molar excess of reductase (1:5 μM), after 2 h [1] does the source give for “BMO–HFBI (monooxygenase domain of P450 BM3 fused at its C-terminus to hydrophobin HFBI) (from UniProt P14779 1-472; P52754 23-97)” here?
**A.** 97%

**Q.** And the conversion of myristic acid with cofactor regeneration, equimolar ratio (1:1 μM), time course 2-24 h (49% after 2 h, 78% after 6 h, 99% after 24 h) [2]?
**A.** 99%

**Q.** What about the coupling efficiency (product formed per NADPH consumed) in myristic acid hydroxylation, P450:reductase 1:1 (1 μM each) [3] of the same substance?
**A.** 57.4%

**Q.** And the coupling efficiency (product formed per NADPH consumed) in myristic acid hydroxylation, P450:reductase 1:5 (1 μM : 5 μM) [3]?
**A.** 92.7%
